Laboratory results reported in US12723255B2, “Herbicide tolerance genes and methods of use thereof” (priority 2014, dated 2026).
Like-named read-outs stand apart in the source and are kept apart here.

Key:
F1 hybrid maize plants [1] = assay: trait efficacy field trial, quizalofop-P pressure screening, F1 hybrid; format: in vivo; conditions: crop injury percentage; for 4X Qizalofop-P CIPV4 / 4X Qizalofop-P CIPV8: 0.32 lb ai/acre at VE-V2, V4, V8; for 8X Qizalofop-P CIPV4 / 8X Qizalofop-P CIPV8: 0.64 lb ai/acre at VE-V2, V4, V8; for 16X Qizalofop-P CIPV4 / 16X Qizalofop-P CIPV8: 1.28 lb ai/acre at VE-V2, V4, V8
Protocol: Separate trait efficacy field trials for quizalofop-P and 2,4-D pressure screening were conducted at one location each with F1 hybrid transgenic plants produced by crossing an inbred plant containing maize event MON89034 with an R1 plant containing MON-HT1, MON-HT2, MON-HT8, MON-HT9, and MON-HT10 with and without operably linked CTP sequences. Transgenic F1 hybrid plants containing maize events NK603×MON89034 were used for comparison as a control.
In the trait efficacy field trial for quizalofop-P tolerance, one of three herbicide treatments was used: (1) quizalofop-P (Assure II) at 0.32 lb ai/acre (4×) plus 0.25% v/v non-ionic surfactant (NIS) applied at VE-V2 growth stage followed by the same at V4 growth stage followed by the same at V8 growth stage; (2) quizalofop-P at 0.64 lb ai/acre (8×) plus 0.25% v/v NIS applied at VE-V2 growth stage followed by the same at V4 growth stage followed by the same at V8 growth stage; or (3) quizalofop-P at 1.28 lb ai/acre (16×) plus 0.25% v/v NIS applied at VE-V2 growth stage followed by the same at V4 growth stage followed by the same at V8 growth stage. Plots were visually rated as above. […] The injury rating for the control plants after all quizalofop-P application was 100%. Error was calculated using LSD (0.05).

F1 hybrid maize plants [2] = assay: efficacy field trial with segregating F1 hybrid plants; format: in vivo; conditions: for % Injury from V4 2,4-D / % Injury from V8 2,4-D: 2,4-D amine 2× at VE-V2 (plus quizalofop-P 0.5×), V4, V8; for % Injury from V4 Quizalofop / % Injury from V8 Quizalofop: quizalofop-P 2× at VE-V2, V4, V8
Protocol: Ten unique engineered proteins optimized for activity at higher temperatures were selected for maize transformation and analysis in plants. DNA constructs were produced for expressing these engineered proteins with codon usage optimized for monocot expression using methods known to those skilled in the art. Enhancers, promoters, leaders, introns, CTPs, and 3′UTRs were tested in various combinations with the engineered proteins in these DNA constructs. The DNA constructs were used to transform immature maize (LH244) embryos with these vectors using Agrobacterium tumifaciens and standard methods known in the art. Regenerated R0 transgenic plantlets were grown in the green house.
Transgenic R0 maize plants were screened by the application of quizalofop-P (2×) plus 2,4-D (2×) at 7 to 10 days following transplant into plugs (generally corresponding to V3-V4 growth stage). All constructs tested produced plants containing unique events that passed the RO screen. The R0 plants were selfed to generate R1 homozygous seed and the R0 was also used as the male to cross with inbred plants containing maize event MON89034 to generate segregating F1 hybrid seed for efficacy field trials.
An efficacy field trial was conducted with segregating F1 hybrid plants, with 50% hemizygous and 50% null for the transgene. Tolerance to quizalofop-P (2×) plus 2,4-D (2×) was assessed using two herbicide application regimens: (1) quizalofop-P (Assure II) at 0.16 lb ai/acre (2×) plus 0.25% v/v non-ionic surfactant (NIS) applied at VE-V2 growth stage followed by the same at V4 growth stage followed by the same at V8 growth stage and (2) 2,4-D amine at 2 lb ae/acre (2×) plus quizalofop-P at 0.04 lb ai/acre (0.5×) plus 0.25% v/v NIS applied at VE-V2 growth stage followed by 2,4-D amine at 2 lb ae/acre (2×) plus 0.25% v/v NIS applied at V4 growth stage followed by the same at V8 growth stage. The 50% of the plants that were null for transgene were removed by the first quizalofop-P application at VE-V2 growth stage. Plots were visually rated 10-14 days after application for crop injury on a scale of 0 to 100 with “0” being none and “100” being complete crop destruction. […] The percentage injury rating with 2× application of 2,4-D at V8 growth stage ranged from a high of 40% to a low of 0. Similarly, the percentage injury rating with 2× application of quizalofop-P at V8 growth stage ranged from a high of 90% to a low of 0. Variation in injury rating between plants expressing the same protein is likely due to variations in construct design or transgene insertion location.

[3] = kinetic analysis, non-endpoint assay at 23° C.; format: biochemical
Summary of the method: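 Purified C-terminal 6-His-tagged recombinant enzymes expressed in bacteria; quizalofop-P or 2,4-D as substrate. Vmax reported as specific activity (umol herbicide product mg enzyme-1 min-1) and Km as mM herbicide substrate, with standard error.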

B1: MON-HT1: engineered oxygenase protein, amino acid sequence SEQ ID NO:14 (protein)
chain: MHAALTPLTNKYRFIDVQPLTGVLGAEITGVDLREPLDDSTWNEILDAFHTYQVIYFPGQAITNEQHIAFSRRFGPVDPVPILKSIEGYPEVQMIRREANESSRFIGDDWHTDSTFLDAPPAAVVMRAIEVPEYGGDTGFLSMYSAWETLSPTMQATIEGLNVVHSATKVFGSLYQATNWRFSNTSVKVMDVDAGDRETVHPLVVTHPVTGRRALYCNQVYCQKIQGMTDAESKSLLQFLYEHATKFDFTCRVRWKKDQVLVWDNLCTMHRAVPDYAGKFRYLTRTTVAGDKPSR
4X Qizalofop-P CIPV4 (F1 hybrid maize plants [1]; CTP A): 0
4X Qizalofop-P CIPV8 (F1 hybrid maize plants [1]; CTP A): 7.5
8X Qizalofop-P CIPV4 (F1 hybrid maize plants [1]; CTP A): 2.5
8X Qizalofop-P CIPV8 (F1 hybrid maize plants [1]; CTP A): 10
16X Qizalofop-P CIPV4 (F1 hybrid maize plants [1]; CTP A): 5
16X Qizalofop-P CIPV8 (F1 hybrid maize plants [1]; CTP A): 15
4X Qizalofop-P CIPV4 (F1 hybrid maize plants [1]; CTP B): 2.5
4X Qizalofop-P CIPV8 (F1 hybrid maize plants [1]; CTP B): 5
8X Qizalofop-P CIPV4 (F1 hybrid maize plants [1]; CTP B): 2.5
8X Qizalofop-P CIPV8 (F1 hybrid maize plants [1]; CTP B): 7.5
16X Qizalofop-P CIPV4 (F1 hybrid maize plants [1]; CTP B): 2.5
16X Qizalofop-P CIPV8 (F1 hybrid maize plants [1]; CTP B): 20
4X Qizalofop-P CIPV4 (F1 hybrid maize plants [1]; CTP C): 0
4X Qizalofop-P CIPV8 (F1 hybrid maize plants [1]; CTP C): 5
8X Qizalofop-P CIPV4 (F1 hybrid maize plants [1]; CTP C): 2.5
8X Qizalofop-P CIPV8 (F1 hybrid maize plants [1]; CTP C): 10
16X Qizalofop-P CIPV4 (F1 hybrid maize plants [1]; CTP C): 5
16X Qizalofop-P CIPV8 (F1 hybrid maize plants [1]; CTP C): 20
4X Qizalofop-P CIPV4 (F1 hybrid maize plants [1]; no CTP): 2.5
4X Qizalofop-P CIPV8 (F1 hybrid maize plants [1]; no CTP): 10
8X Qizalofop-P CIPV4 (F1 hybrid maize plants [1]; no CTP): 10
8X Qizalofop-P CIPV8 (F1 hybrid maize plants [1]; no CTP): 22.5
16X Qizalofop-P CIPV4 (F1 hybrid maize plants [1]; no CTP): 22.5
16X Qizalofop-P CIPV8 (F1 hybrid maize plants [1]; no CTP): 37.5
% Injury from V4 2,4-D (F1 hybrid maize plants [2]; CTP A): 7.5%
% Injury from V8 2,4-D (F1 hybrid maize plants [2]; CTP A): 5.83%
% Injury from V4 Quizalofop (F1 hybrid maize plants [2]; CTP A): 8.33%
% Injury from V8 Quizalofop (F1 hybrid maize plants [2]; CTP A): 8.33%
% Injury from V4 2,4-D (F1 hybrid maize plants [2]; CTP B): 10%
% Injury from V8 2,4-D (F1 hybrid maize plants [2]; CTP B): 10%
% Injury from V4 Quizalofop (F1 hybrid maize plants [2]; CTP B): 7.5%
% Injury from V8 Quizalofop (F1 hybrid maize plants [2]; CTP B): 8.75%
% Injury from V4 2,4-D (F1 hybrid maize plants [2]; CTP C): 14.09%
% Injury from V8 2,4-D (F1 hybrid maize plants [2]; CTP C): 11.36%
% Injury from V4 Quizalofop (F1 hybrid maize plants [2]; CTP C): 0.45%
% Injury from V8 Quizalofop (F1 hybrid maize plants [2]; CTP C): 0.91%
% Injury from V4 2,4-D (F1 hybrid maize plants [2]; CTP None): 12.86%
% Injury from V8 2,4-D (F1 hybrid maize plants [2]; CTP None): 10.71%
% Injury from V4 Quizalofop (F1 hybrid maize plants [2]; CTP None): 7.14%
% Injury from V8 Quizalofop (F1 hybrid maize plants [2]; CTP None): 7.86%
Vmax for 2,4-D higher than that of the wild-type enzyme [3]: 9.5 fold
Vmax for quizalofop-P relative to the wild-type enzyme ([3]; 23° C.): about half
Vmax Quizalofop ([3]; 23° C., purified His-tagged protein, standard error in parenthetical): 0.76 (−0.04) umol herbicide product mg enzyme-1 min-1
Km ([3]; 23° C., purified His-tagged protein, standard error in parenthetical, read-out: Km Quizalofop): 170 µM
Vmax 2,4-D ([3]; Table 10 series, unit as defined): 1.17 (0.01) umol herbicide product mg enzyme-1 min-1
Km ([3]; Table 10 series, unit as defined, read-out: Km 2,4-D): 30 µM
Vmax Quizalofop ([3]; Table 10 series, 23° C., unit as defined): 1.62 (0.05) umol herbicide product mg enzyme-1 min-1
Km ([3]; Table 10 series, 23° C., unit as defined, read-out: Km Quizalofop): 120 µM
Vmax 2,4-D ([3]; standard error in parenthetical, NDB = activity not robust enough for kinetic characterization): 0.95 (−0.03) umol herbicide product mg enzyme-1 min-1
Km ([3]; standard error in parenthetical, NDB = activity not robust enough for kinetic characterization, read-out: Km 2,4-D): 30 µM
